Data taken from patent publication US20060292149A1 (LIFE SCIENCES RESEARCH PARTNERS, published 2006).
Where a chain is given by its changes, count along the chain named.

Key:
[1] = target: Factor VIII in a pool of normal human plasma (human), P00451; experiment: cell-based or functional assay
[2] = target: recombinant FVIII (human), P00451; experiment: cell-based or functional assay
recombinant FVIII = target: T1, recombinant FVIII (human, UniProt P00451 20-2351); experiment: SPR (BIAcore), antibody immobilised on CM5 chip, FVIII infused
T1 chain: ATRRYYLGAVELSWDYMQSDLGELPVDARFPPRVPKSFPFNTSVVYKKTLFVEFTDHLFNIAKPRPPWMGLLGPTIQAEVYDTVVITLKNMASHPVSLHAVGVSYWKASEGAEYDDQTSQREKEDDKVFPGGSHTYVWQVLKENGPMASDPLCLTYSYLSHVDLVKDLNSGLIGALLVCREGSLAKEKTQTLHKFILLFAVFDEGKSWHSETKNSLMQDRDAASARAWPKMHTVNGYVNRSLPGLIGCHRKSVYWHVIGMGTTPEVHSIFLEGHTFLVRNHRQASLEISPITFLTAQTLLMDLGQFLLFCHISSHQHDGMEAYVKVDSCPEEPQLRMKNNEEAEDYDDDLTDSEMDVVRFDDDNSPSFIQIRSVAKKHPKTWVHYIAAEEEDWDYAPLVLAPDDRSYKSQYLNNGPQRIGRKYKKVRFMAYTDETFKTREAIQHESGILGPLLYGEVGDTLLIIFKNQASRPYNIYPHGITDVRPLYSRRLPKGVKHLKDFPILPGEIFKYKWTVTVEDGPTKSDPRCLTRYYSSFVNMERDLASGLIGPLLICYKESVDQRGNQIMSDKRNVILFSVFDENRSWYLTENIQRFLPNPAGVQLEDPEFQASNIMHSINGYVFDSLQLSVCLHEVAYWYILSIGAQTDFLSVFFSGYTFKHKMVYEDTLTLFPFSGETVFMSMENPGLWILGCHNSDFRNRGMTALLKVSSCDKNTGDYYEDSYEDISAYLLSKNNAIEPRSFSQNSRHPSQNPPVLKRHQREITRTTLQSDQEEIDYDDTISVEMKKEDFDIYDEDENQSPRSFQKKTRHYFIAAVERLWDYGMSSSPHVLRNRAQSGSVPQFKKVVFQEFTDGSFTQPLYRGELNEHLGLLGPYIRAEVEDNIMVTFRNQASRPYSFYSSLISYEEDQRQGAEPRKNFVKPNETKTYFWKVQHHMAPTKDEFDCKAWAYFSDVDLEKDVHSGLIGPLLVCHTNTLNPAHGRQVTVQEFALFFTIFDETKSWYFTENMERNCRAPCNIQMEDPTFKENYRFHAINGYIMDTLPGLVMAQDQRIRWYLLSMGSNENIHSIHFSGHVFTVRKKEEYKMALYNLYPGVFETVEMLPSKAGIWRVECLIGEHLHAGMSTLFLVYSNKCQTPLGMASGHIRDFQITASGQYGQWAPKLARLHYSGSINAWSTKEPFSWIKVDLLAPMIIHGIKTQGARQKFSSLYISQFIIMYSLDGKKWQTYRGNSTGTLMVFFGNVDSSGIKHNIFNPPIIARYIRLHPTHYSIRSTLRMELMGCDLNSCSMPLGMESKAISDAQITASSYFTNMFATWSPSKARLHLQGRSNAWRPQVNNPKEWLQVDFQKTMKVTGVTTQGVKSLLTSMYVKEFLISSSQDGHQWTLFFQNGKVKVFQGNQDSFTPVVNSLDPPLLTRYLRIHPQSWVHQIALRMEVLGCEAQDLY

B1: Krix-1 (human monoclonal antibody KRIX-1 produced in a lymphoblastoid cell line) (antibody, V domains shown)
VH: QVQLVQSGAEVKKPGASVKVSCKTSGYNFTGYSASGHIFTAYSVHWVRQAPGQGLEWMGRINPNSGATDYAHKFQGRVTMSRDTSISTAYMELSRLTSDDTAMYYCARADNYFDIVTGYTSHYFDYWGRGTLVTVSSASTKGPSVF
VL: EIVLTQSPGTLSLSPGERATLSCRASQSVASAYLAWYQQKPGQAPRLLIYGASSRATDIPHRFSGSGSGTDFTLTISRLEPEDFAVYYCQQYGTSALLTFGGGTKVEIKRTVAAPSVFIFPPS
modifications: here or on the partner: N-linked glycosylation site at Asn47-Thr49, glycosylated as produced by the human lymphoblastoid cell line
Q: With B1 as the binder, how does the inhibition of FVIII activity in plasma (Bethesda assay, chromogenic FVIII assay) [1] read?
A: 90%

Q: And the inhibition of FVIII activity in plasma (chromogenic assay) [1]?
A: 90%

B2: RHD5 (human monoclonal antibody from the lymphoblastoid cell line RHD5) (antibody, V domains shown)
VH: QVQLVQSGAEVKKPGSSVMVSCKASGGTFSSFGISWVRQAPGQGLEWVGGIIPIFGTANTARNFQNRVTITADEFTSTAYIRLRSLRSEDTAVYYCVGGRDAYSFDGFDVWGQGTMVTVSSASTKGPSVFP
VL: SSGLTQPHSVSVSPGQTANITCSRDKLGHKFASWYQQKPGQSPALLIYQDSKRPSGIPERFSGSNSGNTATLTISGTQAMDEADYYCQAWDNTTAVFGGGTKLTVLSQPKAAPSVTLFPPS
Q: Which inhibition of FVIII activity at a final concentration of RHD5 of 100 microgram/ml (plasma) [1] does the source give for B2 here?
A: 97%

Q: What about the inhibition of FVIII activity at a final concentration of RHD5 of 100 microgram/ml (full length recombinant FVIII) [2] of the same binder?
A: 98%

B3: deglycosylated KRIX-1 (KRIX-1 treated with N-glycosidase-F) (antibody, IgG4, V domains shown)
VH: B1 VH
VL: B1 VL
modifications: here or on the partner: N-linked glycans removed by N-glycosidase-F (2 U/ml, 37 C, 72 h)
Q: How did the inhibition of FVIII activity in plasma (chromogenic assay) [1] turn out when B3 was run?
A: 50%

Q: And the maximal inhibition (plateau inhibition) of FVIII activity in plasma (Bethesda assay, chromogenic FVIII assay) [1]?
A: 50%

B4: CHO-recKRIX-1 (recombinant Krix-1 produced in CHO cells) (antibody, V domains shown)
VH: B1 VH
VL: B1 VL
modifications: here or on the partner: N-linked glycosylation site at Asn47-Thr49, glycosylated as produced by CHO cells
Q: For B4, which maximal inhibition of FVIII activity in large excess of antibody (chromogenic assay) [1] is on record?
A: 75 to 85%

B5: CHO-recKRIX-1 (recombinant Krix-1 produced in CHO cells) (antibody, V domains shown)
VH: QVQLVQSGAEVKKPGASVKVSCKTSGYNFTGYSASGHIFTAYSVHWVRQAPGQGLEWMGRINPNSGATDYAHKFQGRVTMSRDTSISTAYMELSRLTSDDTAMYYCARADNYFDIVTGYTSHYFDYWGRGTLVTVSS
VL: EIVLTQSPGTLSLSPGERATLSCRASQSVASAYLAWYQQKPGQAPRLLIYGASSRATDIPHRFSGSGSGTDFTLTISRLEPEDFAVYYCQQYGTSALLTFGGGTKVEIKR
modifications: N-linked glycosylation site at Asn47-Thr49, glycosylated as produced by CHO cells
notes: also called native CHO-rec-KRIX-1; rec-mAb Krix-1
Q: B5 was tested. Which Kd (recombinant FVIII) did it give?
A: 0.14 nM

B6: CHO-recKRIX-1Q (Krix-1 with Asn47 changed to Gln in the heavy chain, produced in CHO cells) (antibody, IgG4, V domains shown)
VH: B5 VH with N28Q
VL: B5 VL
notes: IgG4 kappa; The mutation disrupts the N-linked glycosylation site at Asn47-Thr49; also called Asn47Gln Krix-1; rec-mAb-KRIX-1Q
Q: With B6 as the binder, how does the Kd (recombinant FVIII) read?
A: 0.17 nM

B7: CHO-recKRIX-1A (Krix-1 with Thr49 changed to Ala in the heavy chain, produced in CHO cells) (antibody, IgG4, V domains shown)
VH: B5 VH with T30A
VL: B5 VL
notes: IgG4 kappa; The mutation disrupts the N-linked glycosylation site at Asn47-Thr49
Q: Which Kd (recombinant FVIII) does the source give for B7 here?
A: 0.13 nM
